Data taken from patent US7011817B2, “Hydrophilic cyanine dyes” (Mallinckrodt Inc., priority 2000, dated 2006).

Tests used:
[1] = Imaging of individual organs removed from CA20948 tumor-bearing rat; format: in vivo; details: about 24 hours post administration
Protocol: Individual organs were removed at about 24 hours post Cytate 1 administration and imaged.

[2] = Monitoring of the blood clearance profile of peptide-dye conjugates; format: in vivo, Sprague-Dawley or Fischer 344 rats; details: rat ear; monitored at 830 nm after excitation at 780 nm
Description: A laser of appropriate wavelength for excitation of the dye chromophore was directed into one end of a fiber optic bundle and the other end was positioned a few millimeters from the ear of a rat. A second fiber optic bundle was also positioned near the same ear to detect the emitted fluorescent light and the other end was directed into the optics and electronics for data collection. An interference filter (IF) in the collection optics train was used to select emitted fluorescent light of the appropriate wavelength for the dye chromophore.
Sprague-Dawley or Fischer 344 rats were used in these studies. The animals were anesthetized with urethane administered via intraperitoneal injection at a dose of 1.35 g/kg body weight. After the animals had achieved the desired plane of anesthesia, a 21 gauge butterfly with 12″ tubing was placed in the lateral tail vein of each animal and flushed with heparinized saline. The animals were placed on a heating pad and kept warm throughout the entire study. The lobe of the left ear was affixed to a glass microscope slide to reduce movement and vibration.
Incident laser light delivered from the fiber optic was centered on the affixed ear. Data acquisition was then initiated, and a background reading of fluorescence was obtained prior to administration of the test agent. For Cytates 1 or 2, the peptide-dye conjugate was administered to the animal through a bolus injection, typically 0.5 to 2.0 mL, in the lateral tail vein. This procedure was repeated with several dye-peptide conjugates in normal and tumor-bearing rats. Representative profiles as a method to monitor blood clearance of the peptide-dye conjugate in normal and tumor-bearing animals are shown in FIGS. 12 to 16. The data were analyzed using a standard sigma plot software program for a one-compartment model.

[3] = test system: Rat pancreatic acinar carcinoma expressing the SST-2 receptor (CA20948); experiment: In vivo fluorescence imaging of pancreatic acinar carcinoma CA20948 in rats
Description: (§1) A non-invasive in vivo fluorescence imaging apparatus was employed to assess the efficacy of contrast agents developed for tumor detection in animal models. A LaserMax Inc. laser diode of nominal wavelength 780 nm and nominal power of 40 mW was used. The detector was a Princeton Instruments model RTE/CCD-1317-K/2 CCD camera with a Rodenstock 10 mm F2 lens (stock #542.032.002.20) attached. An 830 nm interference […] (CVI Laser Corp., part # F10-830-4-2) was mounted in front of the CCD input lens such that only emitted fluorescent light from the contrast agent was imaged. Typically, an image of the animal was taken pre-injection of contrast agent. This image was subsequently subtracted (pixel by pixel) from the post injection images. However, the background subtraction was […] done once the animal had been removed from the sample area and returned at a later time for images taken several hours post injection.
The imaging apparatus and the procedure used are described in Example 12. Rat pancreatic acinar carcinoma expressing the SST-2 receptor (CA20948) was induced by solid implant technique in the left flank area, and palpable masses were detected nine days post implant. The images obtained at 2 and 30 minutes post injection are shown in FIGS. 7E-F. FIGS. 7E-F are images of a rat with an induced pancreatic acinar carcinoma (CA20948) expressing the SST-2 receptor imaged at two minutes (FIG. 7E) and 30 minutes (FIG. 7F) post injection.
The imaging apparatus and the procedure used are described in Example 12, except that each animal received 500 μl of a 1.0 mg/mL solution of Cytate 1 solution of 25% dimethylsulfoxide in water.
Rat pancreatic acinar carcinoma expressing the SST-2 receptor (CA20948) were induced by solid implant technique in the left flank area, and palpable masses were detected 24 days post implant. Images were obtained at various times post injection.
Cytate 1 was evaluated in the CA20948 Lewis rat model. […] At 27 hours post injection, the animal was again imaged (FIG. 9B).

[4] = test system: Prostatic Carcinoma (R3327-H); experiment: In vivo fluorescence imaging of prostatic carcinoma R3327-H in rats; set-up: species or system male Copenhagen rats
Description: as §1
The imaging apparatus and the procedure used are described as in Example 12. Prostate tumors (Dunning R3327-H) were induced in young male Copenhagen rats in the left flank area from a solid implant. These tumors grow very slowly and palpable masses were present 4-5 months post implant. FIGS. 7C-D are images of a rat with an induced prostatic carcinoma tumor (R3327-H) imaged at two minutes (FIG. 7C) and 30 minutes (FIG. 7D) post injection.

[5] = test system: Pancreatic Ductal Adenocarcinoma (DSL 6A); experiment: In vivo fluorescence imaging of DSL 6A tumors in rats; set-up: species or system male Lewis rats
Description: as §1
DSL 6A tumors were induced in male Lewis rats in the left flank area by the introduction of material from a solid (donor) implant, and the tumors were palpable in approximately 14 days. The animals were anesthetized with xylazine:ketamine:acepromazine, 1.5:1.5:0.5 at 0.8 mL/kg via intramuscular injection. The area of the tumor (left flank) was shaved to expose the tumor and the surrounding surface area. […]

C[C@@H](O)[C@H](NC(=O)[C@@H]1CSSC[C@H](NC(=O)[C@@H](Cc2ccccc2)NC(=O)CC[N+]2=C(/C=C/C=C/C=C/C=C3/N(CCC(=O)O)c4ccc5ccccc5c4C3(C)C)C(C)(C)c3c2ccc2ccccc32)C(=O)N[C@@H](Cc2ccc(O)cc2)C(=O)N[C@H](Cc2c[nH]c3ccccc23)C(=O)N[C@@H](CCCCN)C(=O)N[C@@H]([C@@H](C)O)C(=O)N1)C(=O)O [Cytate 1, monoOctreotate-Bisethylcarboxymethylindocyanine dye]
organ uptake: adrenals [1]: high uptake
organ uptake: heart [1]: significantly lower uptake
organ uptake: liver [1]: significantly lower uptake
organ uptake: muscle [1]: significantly lower uptake
organ uptake: pancreas [1]: high uptake
organ uptake: spleen [1]: significantly lower uptake
organ uptake: tumor tissue [1]: high uptake
blood fluorescence signal after bolus injection (rise) [2]: rapidly increased to a peak value
blood fluorescence signal after the peak (clearance) [2]: decayed as a function of time

C[C@@H](O)[C@H](NC(=O)[C@@H]1CSSC[C@H](NC(=O)[C@@H](Cc2ccccc2)NC(=O)CCN2C(=CC=CC=CC=CC3=[N+](CCC(=O)N[C@H](Cc4ccccc4)C(=O)N[C@H]4CSSC[C@@H](C(=O)N[C@H](C(=O)O)[C@@H](C)O)NC(=O)[C@H]([C@@H](C)O)NC(=O)[C@H](CCCCN)NC(=O)[C@@H](Cc5c[nH]c6ccccc56)NC(=O)[C@H](Cc5ccc(O)cc5)NC4=O)c4ccc5ccccc5c4C3(C)C)C(C)(C)c3c2ccc2ccccc32)C(=O)N[C@@H](Cc2ccc(O)cc2)C(=O)N[C@H](Cc2c[nH]c3ccccc23)C(=O)N[C@@H](CCCCN)C(=O)N[C@@H]([C@@H](C)O)C(=O)N1)C(=O)O [Cytate 2, bisOctreotate-Bisethylcarboxymethylindocyanine dye]
blood fluorescence signal after bolus injection (rise) [2]: rapidly increased to a peak value
blood fluorescence signal after the peak (clearance) [2]: decayed as a function of time

CC1(C)C(/C=C/C=C/C=C/C=C2\N(CCCCS(=O)(=O)O)c3ccc4ccccc4c3C2(C)C)=[N+](CCCCS(=O)(=O)[O-])c2ccc3ccccc3c21 [ICG, indocyanine green]
dye intensity in the tumor ([3]; 30 minutes post-ICG injection, CA20948 tumor): considerably diminished and almost absent
dye fluorescence in the tumor at 45 minutes ([3]; 45 minutes post injection, CA20948 tumor): mostly cleared
perfusion of the agent into the tumor ([3]; CA20948 (pancreatic) tumor line): only a slight but transient perfusion that was absent after only 30 minutes post injection
dye intensity in the tumor ([4]; 30 minutes post-ICG injection, R3327-H tumor): considerably diminished
perfusion of the agent into the tumor ([4]; Dunning R3327H (prostate) tumor line): slow perfusion of the agent over time into the tumor
dye intensity in the tumor ([5]; 30 minutes post-ICG injection, DSL 6A tumor, 500 μL of 0.42 mg/mL in water, tail vein): considerably diminished
perfusion of the agent into the tumor ([5]; DSL 6/A (pancreatic) tumor line): slow perfusion of the agent over time into the tumor
